The target in one test is human insulin (human) (UniProt P01308). Kind of test: polyreactivity ELISA, insulin coated, antibody 10 µg/mL, signal normalised to non-coated well.
Test [1] has as its target tEGFR (truncated EGFR) on vector-only transduced T cells (Homo sapiens (Human)) (UniProt P00533).
The target in test [2] is Western Reserve B5 on cells infected with VVddeGFP Western Reserve virus (Vaccinia virus, Western Reserve strain) (UniProt Q01227). Kind of test: flow cytometry, SKOV3 cells infected with WR VV (negative control).
Test [3] has as its target Copenhagen B5 on cells infected with VVCopenhagen (YFP) virus (Vaccinia virus, Copenhagen strain) (UniProt P21115). Kind of test: flow cytometry, HT29 cells infected with Copenhagen VV (negative control).
The target in test [4] is Western Reserve B5 on cells infected with VVddeGFP Western Reserve virus (Vaccinia virus, Western Reserve strain) (UniProt Q01227). Kind of test: flow cytometry, HT29 cells infected with WR VV (negative control).

The values that follow come from US20240309070A1.

Regarding Infliximab (antibody), the Polyreactivity Insulin Score with human insulin (human) stood at 2.9 score.

As for “VV B5 monomer protein (Wyeth Vaccinia strain B5 with C-terminal AVI tag and HIS6 tag) (from UniProt O57254 18-279)”, in test [1], the CAR+ % Parent stood at 1.54%.

With human IgG1k isotype control (antibody), the EC50 amounted to 0.01 nM in test [2], 0.01 nM in test [3] and 0.02 nM in test [4].
